Reference: patent publication US20230242645A1 (WUXI BIOLOGICS SHANGHAI, published 2023)
One block for each binder: values may come before it.

Columns and labels:
[1] = target: T1, mouse PD-L1 on 293F cells (WBP315.293F.mPro1.C1) (mouse, UniProt Q9EP73 19-290); assay: FACS on mouse PD-L1 expressing 293F cells, FITC anti-human IgG
T1 construct: whole, on cells; also called engineered mouse PD-L1 expressing cells
Procedure: Engineered mouse PD-L1 expressing cells (WBP315.293F.mPro1.C1) were seeded at 1×10⁵ cells/well in U-bottom 96-well plates. Serial dilutions of the different antibodies were added to the cells. Plates were incubated at 4° C. for 1 hour. After wash, FITC-labeled goat anti-human IgG (Jackson ImmunoResearch, 109-095-008) was added to each well and the plates were incubated at 4° C. for 1 hour. […] UIgG1 onto the cells was tested by flow cytometry and the mean fluorescence intensity (MFI) was analyzed by FlowJo.

[2] = target: T2, human PD-L1 on CHO-K1 cells (WBP315.CHO-K1.hPro1.C11) (human, UniProt Q9NZQ7 19-290); assay: FACS on human PD-L1 expressing CHO-K1 cells, FITC anti-human IgG
T2 construct: whole, on cells; also called engineered human PD-L1 expressing cells
T2 sequence (Q9NZQ7 19-290): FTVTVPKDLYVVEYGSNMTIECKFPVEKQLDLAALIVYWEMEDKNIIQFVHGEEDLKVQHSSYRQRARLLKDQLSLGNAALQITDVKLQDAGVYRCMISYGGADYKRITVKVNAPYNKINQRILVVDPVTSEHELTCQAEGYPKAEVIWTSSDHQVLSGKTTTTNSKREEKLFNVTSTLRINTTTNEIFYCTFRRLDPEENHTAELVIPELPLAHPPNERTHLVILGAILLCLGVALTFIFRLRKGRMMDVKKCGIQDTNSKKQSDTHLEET
Procedure: (§1) Engineered human PD-L1 expressing cells (WBP315.CHO-K1.hPro1.C11) were seeded at 1×10⁵ cells/well in U-bottom 96-well plates. […] UIgG1 was added to the cells. Plates were incubated at 4° C. for 1 hour. After wash, FITC-labeled goat anti-human IgG (Jackson ImmunoResearch, 109-095-008) was added to each well and the plates were incubated at 4° C. for 1 hour. The binding of the antibodies onto the cells was tested by flow cytometry and the mean fluorescence intensity (MFI) was analyzed by FlowJo.

[3] = target: T3, cynomolgus monkey PD-L1 on 293F cells (WBP315.293F.cPro1.2A) (cynomolgus monkey, UniProt G7PSE7 19-290); assay: FACS on cynomolgus PD-L1 expressing 293F cells, FITC anti-human IgG
T3 construct: also called cynomolgus PD-L1; cyno PD-L1
T3 sequence (G7PSE7 entry or part of it limits assumed): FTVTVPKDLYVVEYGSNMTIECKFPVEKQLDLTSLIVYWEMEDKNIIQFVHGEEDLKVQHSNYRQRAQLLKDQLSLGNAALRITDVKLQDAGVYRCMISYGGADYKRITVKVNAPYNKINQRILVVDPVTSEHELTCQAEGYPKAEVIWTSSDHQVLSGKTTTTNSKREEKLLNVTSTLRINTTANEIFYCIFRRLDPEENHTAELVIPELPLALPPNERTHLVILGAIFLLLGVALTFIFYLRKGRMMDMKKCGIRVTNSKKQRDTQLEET
Procedure: as §1, with “Engineered cynomolgus monkey” for “Engineered human”, “cells (WBP315.293F.cPro1.2A)” for “cells (WBP315.CHO-K1.hPro1.C11)”

[4] = target: T4, human PD-L1 extracellular domain, his tag (W315-hPro1.ECD.his) (human, UniProt Q9NZQ7 19-238); assay: SPR (Biacore T200), antibody captured on anti-human Fc, antigen as analyte, 25 °C
T4 construct: extracellular domain; Analyte in SPR; also called W315-hPro1.ECD.his (PD-L1); ECD of PD-L1; not shown: C-terminal his tag (6xhis)
T4 sequence (Q9NZQ7 19-238): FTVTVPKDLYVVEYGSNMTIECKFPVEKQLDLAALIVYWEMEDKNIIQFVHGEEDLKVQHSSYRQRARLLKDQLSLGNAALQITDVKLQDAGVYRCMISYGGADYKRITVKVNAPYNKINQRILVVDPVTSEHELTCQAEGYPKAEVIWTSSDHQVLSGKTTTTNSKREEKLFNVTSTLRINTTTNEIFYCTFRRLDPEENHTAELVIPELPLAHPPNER
Procedure: Biacore T200, Series S Sensor Chip CM5, Amine Coupling Kit, and 10×HBS-EP were purchased from GE Healthcare. The antibody was captured onto the anti-human Fc IgG (Jackson, 109-005-098) surface immobilized on CM5-biosensor chip (GE Healthcare Inc.). The assay was performed at 25° C. with HBS-EP+ buffer (GE Healthcare Inc.) as running and dilution buffer. Serially diluted PD-L1 antigen or VEGF antigen (W315-hPro1.ECD.his or W325-hPro1.his) and running buffer were injected for an association phase and followed dissociation phase detection. Regeneration of the chip surface was reached by an injection of 10 mM Glycine, pH 1.5.
The on-rate constant (ka) and off-rate constant (kd) were also measured in the mean time. Final data of each interaction was deducted from reference channel and buffer channel data.

[5] = target: T5, mouse VEGF (WBP325-mPro1, Sino Biological, 50159-MNAB) (mouse, UniProt Q00731-2 27-190); assay: ELISA, plate coated with mouse VEGF, detection with anti-human IgG Fc-HRP
T5 construct: Bought protein
T5 sequence (looked up): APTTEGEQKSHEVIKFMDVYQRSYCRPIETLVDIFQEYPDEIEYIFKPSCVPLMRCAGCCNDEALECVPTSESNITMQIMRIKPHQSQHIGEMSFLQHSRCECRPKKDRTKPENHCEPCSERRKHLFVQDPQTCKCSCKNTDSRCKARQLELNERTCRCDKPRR

[6] = target: T1, mouse PD-L1 on 293F cells …; assay: FACS competition on mouse PD-L1 expressing cells: antibody premixed with mouse Fc tagged murine PD-1 at 5 ug/ml, PE anti-mouse IgG; blocked ligand mouse PD-1
Procedure: (§2) Mouse PD-L1 expressing […] (WBP315.293F.mPro1.C1) were seeded at 1×10⁵ cells/well in 96-well U-bottom plates. […] After washing, PE-labeled anti-mouse IgG was added and incubated with cells at 4° C. for 1 hour. Cells were washed twice and MFI of the cells was measured by a flow cytometer and analyzed by FlowJo.

[7] = target: T2, human PD-L1 on CHO-K1 cells …; assay: FACS competition on human PD-L1 expressing CHO-K1 cells: antibody premixed with mouse Fc tagged human PD-1 at 5 ug/ml, PE anti-mouse IgG; blocked ligand human PD-1
Procedure: as §2, with “Human” for “Mouse”, “(WBP315.CHO-K1.hPro1.C11)” for “(WBP315.293F.mPro1.C1)”, “45 minutes.” for “1 hour.”

[8] = target: T6, human PD-L1 extracellular domain, mouse Fc (PD-L1.ECD.mFc, W3153-hPro1.ECD.mFc) (human, UniProt Q9NZQ7 19-238); assay: dual binding ELISA: plate coated with human VEGF, antibody titrated, then biotinylated PD-L1.ECD.mFc at 0.5 ug/ml
T6 construct: extracellular domain; also called WBP315-hPro1.ECD.mFc; antigen-2; not shown: mouse Fc tag at the C-terminus
T6 sequence (Q9NZQ7 19-238): as the sequence (Q9NZQ7 19-238) above

T1 sequence (Q9EP73 19-290): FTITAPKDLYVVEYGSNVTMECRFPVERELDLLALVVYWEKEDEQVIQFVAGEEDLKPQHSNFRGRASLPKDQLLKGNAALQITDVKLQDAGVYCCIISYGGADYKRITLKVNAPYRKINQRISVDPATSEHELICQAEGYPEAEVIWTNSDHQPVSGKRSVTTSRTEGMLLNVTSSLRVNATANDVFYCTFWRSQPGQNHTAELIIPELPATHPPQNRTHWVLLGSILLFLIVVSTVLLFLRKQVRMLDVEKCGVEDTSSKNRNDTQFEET

EC50 (read off the curve) [1]: ~2 nM | EC50 (read off the curve) [2]: ~0.05 nM | EC50 (read off the curve) [3]: ~2 nM | Kd [4]: 0.16 nM | koff [4]: 0.000291 s⁻¹ | kon [4]: 1.82e+06 M⁻¹ s⁻¹ | binding result [5]: no binding (tested: 100 nM) | IC50 (read off the curve) [6]: ~2 nM | IC50 (read off the curve) [7]: ~0.04 nM
B1: W3156-AP3R2-1A3-z12-hIgG1 (Fc fusion)
chain: EVQLVESGGGLVQPGGSLRLSCAASGHFSNLAVNWFRQAPGKERELVAGILWSGGSTFYADSVKGRFTISRGNAENMLYLQMNSLRAEDTAVYYCNTGTNWGQGTLVTVSS
notes: VHH in hIgG1 format as tested; The construction of the hIgG1 format is not described; also called anti-PD-L1 VHH antibody; parental anti-PD-L1 antibody; not shown: human IgG1 part (hIgG1) named in the label only

binding result [8]: no binding (tested: 100 nM)
B2: WBP325-BMK3.uIgG1 (Bevacizumab) (antibody, V domains shown)
VH: EVQLVESGGGLVQPGGSLRLSCAASGYTFTNYGMNWVRQAPGKGLEWVGWINTYTGEPTYAADFKRRFTFSLDTSKSTAYLQMNSLRAEDTAVYYCAKYPHYYGSSHWYFDVWGQGTLVTVSS
VL: DIQMTQSPSSLSASVGDRVTITCSASQDISNYLNWYQQKPGKAPKVLIYFTSSLHSGVPSRFSGSGSGTDFTLTISSLQPEDFATYYCQQYSTVPWTFGQGTKVEIK
notes: also called W325-BMK3.uIgG1; W325-BMK3
